Literature values, collected in article PMC6611644.
Several values for one entry are separate records, joined by “and”; a condition that tells them apart may be missing. Equal values may be shown once.

Target: GPIbα (Homo sapiens) (UniProt P07359)
Assay: SPR

Sequence of UniProt P07359 (P07359 17-306): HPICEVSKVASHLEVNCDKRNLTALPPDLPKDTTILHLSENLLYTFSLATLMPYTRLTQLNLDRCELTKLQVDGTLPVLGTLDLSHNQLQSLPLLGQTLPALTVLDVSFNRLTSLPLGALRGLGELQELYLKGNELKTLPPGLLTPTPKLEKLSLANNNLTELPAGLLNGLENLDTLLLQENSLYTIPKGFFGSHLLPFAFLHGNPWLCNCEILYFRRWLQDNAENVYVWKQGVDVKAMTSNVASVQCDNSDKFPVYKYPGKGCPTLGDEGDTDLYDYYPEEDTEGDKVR

Question: Which Kd does the source give for GspB BR (from UniProt Q939N5) here?
Answer: The Kd was 23.8 nM.

Question: Which Kd does the source give for Hsa BR (from UniProt A8AWU7) here?
Answer: The Kd was 5.05 nM and 30.5 nM.
